# According to IntAct's records for PubMed 33420071:
# B1: Dual oxidase 1 (Homo sapiens), Q9NRD9 (parent)
# chain: MGFCLALAWTLLVGAWTPLGAQNPISWEVQRFDGWYNNLMEHRWGSKGSRLQRLVPASYADGVYQPLGEPHLPNPRDLSNTISRGPAGLASLRNRTVLGVFFGYHVLSDLVSVETPGCPAEFLNIRIPPGDPMFDPDQRGDVVLPFQRSRWDPETGRSPSNPRDPANQVTGWLDGSAIYGSSHSWSDALRSFSRGQLASGPDPAFPRDSQNPLLMWAAPDPATGQNGPRGLYAFGAERGNREPFLQALGLLWFRYHNLWAQRLARQHPDWEDEELFQHARKRVIATYQNIAVYEWLPSFLQKTLPEYTGYRPFLDPSISSEFVAASEQFLSTMVPPGVYMRNASCHFQGVINRNSSVSRALRVCNSYWSREHPSLQSAEDVDALLLGMASQIAEREDHVLVEDVRDFWPGPLKFSRTDHLASCLQRGRDLGLPSYTKARAALGLSPITRWQDINPALSRSNDTVLEATAALYNQDLSWLELLPGGLLESHRDPGPLFSTIVLEQFVRLRDGDRYWFENTRNGLFSKKEIEEIRNTTLQDVLVAVINIDPSALQPNVFVWHKGDPCPQPRQLSTEGLPACAPSVVRDYFEGSGFGFGVTIGTLCCFPLVSLLSAWIVARLRMRNFKRLQGQDRQSIVSEKLVGGMEALEWQGHKEPCRPVLVYLQPGQIRVVDGRLTVLRTIQLQPPQKVNFVLSSNRGRRTLLLKIPKEYDLVLLFNLEEERQALVENLRGALKESGLSIQEWELREQELMRAAVTREQRRHLLETFFRHLFSQVLDINQADAGTLPLDSSQKVREALTCELSRAEFAESLGLKPQDMFVESMFSLADKDGNGYLSFREFLDILVVFMKGSPEEKSRLMFRMYDFDGNGLISKDEFIRMLRSFIEISNNCLSKAQLAEVVESMFRESGFQDKEELTWEDFHFMLRDHNSELRFTQLCVKGVEVPEVIKDLCRRASYISQDMICPSPRVSARCSRSDIETELTPQRLQCPMDTDPPQEIRRRFGKKVTSFQPLLFTEAHREKFQRSCLHQTVQQFKRFIENYRRHIGCVAVFYAIAGGLFLERAYYYAFAAHHTGITDTTRVGIILSRGTAASISFMFSYILLTMCRNLITFLRETFLNRYVPFDAAVDFHRLIASTAIVLTVLHSVGHVVNVYLFSISPLSVLSCLFPGLFHDDGSELPQKYYWWFFQTVPGLTGVVLLLILAIMYVFASHHFRRRSFRGFWLTHHLYILLYVLLIIHGSFALIQLPRFHIFFLVPAIIYGGDKLVSLSRKKVEISVVKAELLPSGVTHLRFQRPQGFEYKSGQWVRIACLALGTTEYHPFTLTSAPHEDTLSLHIRAAGPWTTRLREIYSAPTGDRCARYPKLYLDGPFGEGHQEWHKFEVSVLVGGGIGVTPFASILKDLVFKSSVSCQVFCKKIYFIWVTRTQRQFEWLADIIREVEENDHQDLVSVHIYITQLAEKFDLRTTMLYICERHFQKVLNRSLFTGLRSITHFGRPPFEPFFNSLQEVHPQVRKIGVFSCGPPGMTKNVEKACQLINRQDRTHFSHHYENF
# partner: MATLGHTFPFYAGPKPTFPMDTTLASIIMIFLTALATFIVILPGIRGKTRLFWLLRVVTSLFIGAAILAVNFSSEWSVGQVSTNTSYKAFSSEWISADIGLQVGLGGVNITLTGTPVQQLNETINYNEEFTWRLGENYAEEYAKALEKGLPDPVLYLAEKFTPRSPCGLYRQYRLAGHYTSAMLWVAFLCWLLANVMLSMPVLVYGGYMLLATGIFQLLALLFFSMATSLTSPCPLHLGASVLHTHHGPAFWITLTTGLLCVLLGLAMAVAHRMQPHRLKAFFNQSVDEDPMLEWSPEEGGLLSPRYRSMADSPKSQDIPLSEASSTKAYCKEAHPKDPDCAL
# Variants of: B1
# Details: with doxa1_human DUOXA1, Q1HG43
row,Variant,effect of a mutation on the interaction
1,R507E,disrupting interaction strength
2,R507A,disrupting interaction strength
3,R50E,disrupting interaction strength
